Experiment [1] has as its target PSGL-1 (P-选择蛋白糖蛋白配体-1) (human) (UniProt Q14242). The experiment can be described thus: FACS competition on ML2 cells, 200ng KPL-1 against IgG Y1-PE.
Experiment [2] has the same target. The experiment in a line: FACS on ML2 cells, KPL-1-PE alone.

Chain of UniProt Q14242 (Q14242 42-412): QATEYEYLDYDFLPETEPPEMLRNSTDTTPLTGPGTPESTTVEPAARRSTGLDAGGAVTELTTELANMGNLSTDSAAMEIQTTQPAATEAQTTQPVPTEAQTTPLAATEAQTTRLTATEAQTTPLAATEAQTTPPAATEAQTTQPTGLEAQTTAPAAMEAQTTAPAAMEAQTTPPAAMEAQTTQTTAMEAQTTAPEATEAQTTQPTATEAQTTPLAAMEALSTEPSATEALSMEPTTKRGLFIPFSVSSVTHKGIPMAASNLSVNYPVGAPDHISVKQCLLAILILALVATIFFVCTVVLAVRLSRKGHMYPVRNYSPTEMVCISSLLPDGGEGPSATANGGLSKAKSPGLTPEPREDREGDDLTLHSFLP

In experiment [1], KPL-1 (商业化供应的抗PSGL1小鼠单克隆抗体) (antibody) showed a 中值 of IgG Y1-PE with competitor (median fluorescence) of 2 and a 抑制百分比 of 100%. In experiment [2], this substance came in with a 中值 (median fluorescence) of 700.
